From publication PMC4498328

Key:
[1] = target: Barley yellow dwarf virus-GPV readthrough protein (RTP), AcGFP1 fusion (Barley yellow dwarf virus-GPV); assay: co-IP; chemiluminescent Co-IP: pAcGFP1-bait and pProLabel-prey cotransfected into HEK293 cells, lysed after 48 h, anti-GFP polyclonal antibody and protein A/G agarose beads, ProLabel activity read as relative light units; negative control pAcGFP1-Lam/pProLabel-T
[2] = target: Barley yellow dwarf virus-GPV coat protein (CP), AcGFP1 fusion (Barley yellow dwarf virus-GPV); assay: as above

Substance	relative strength of the interaction against the negative control (times the negative control) [1]	relative strength of the interaction against the negative control (times the negative control) [2]
complexin, ProLabel fusion (natural protein)	5.6	–
cytochrome P450 4g15, ProLabel fusion (natural protein)	3.4	–
cytochrome c oxidase polypeptide IV-like, ProLabel fusion (natural protein)	4.2	–
nascent polypeptide-associated complex subunit alpha, ProLabel fusion (natural protein)	4.9	1.6
pancreatic lipase-related protein, ProLabel fusion (natural protein)	23	3
tropomyosin, ProLabel fusion (natural protein)	8.7	–
twinstar, ProLabel fusion (natural protein)	7.1	–
